The Immune Epitope Database (IEDB)

Columns and labels:
Conditions in all cases: source organism: Vibrio vulnificus YJ016
HLA-C*03:03 = test: IEDB peptide-MHC binding, purified MHC/direct/fluorescence; filed as Kd, often an IC50 or EC50 that approximates it; ≥ and ≤ were set here for values at or beyond the usual limits of such assays
HLA-A*03:01 = test: IEDB peptide-MHC binding, purified MHC/competitive/fluorescence; filed as Kd, often an IC50 or EC50 that approximates it; ≥ and ≤ were set here for values at or beyond the usual limits of such assays
HLA-B*15:42 = test: as above
HLA-B*27:20 = test: as above
HLA-B*40:13 = test: as above
HLA-B*45:06 = test: as above
HLA-B*83:01 = test: as above
HLA-C*04:01 = test: as above
HLA-C*06:02 = test: as above
HLA-C*14:02 = test: as above

KMFNRASYF
Kd (HLA-C*03:03): 2720 nM | Kd (HLA-A*03:01): 4.8 nM | Kd (HLA-B*15:42): ≥ 5000 nM | Kd (HLA-B*27:20): 1.2 nM | Kd (HLA-B*40:13): 2.4 nM | Kd (HLA-B*45:06): ≥ 5000 nM | Kd (HLA-B*83:01): ≥ 5000 nM | Kd (HLA-C*04:01): 304 nM | Kd (HLA-C*06:02): 68 nM | Kd (HLA-C*14:02): 4 nM
